# From paper PMC4865677, “Dataset of gene cloning and gel filtration chromatography of R-est6” (Data in Brief, 2016)
# B1: R-est6, family 6 carboxylesterase from Methylococcus capsulatus (bath) (enzyme, Methylococcus capsulatus (bath strain), UniProt Q60CN0 1-336, looked up)
# chain: MSTFDRGFARLLLEICRYTYAKAFALAPEEGDALQWIEQQGGKPDPASLEPIRGGDTSVACVFRYPDKNVVAYMGTKTEFDNAVNAKDSIEDWLNNFRAAPVPFKLGKEHLGLDKEVELPGRVHAGFLSELKAVQAKVIDVLSKNGGKDKPLYLTGHSQGGAEATLATVALLAGGFKVAATYTFAAPRAGDRTFADAVPAEFPFHRIEFGDDIVPHVPPTLLSRWVKTLVTVPRHLPLKRFGVPVKVNEFLELSVHDLGYVGVGRLCYGNHESGQLHVDMSVRQEASLFLGRLTRLLRHPEHWAEHHHLAGTRAEVSAGKKGNYTALVSDFPIVEG
# notes: also called MCA0075
# Biological target: the molecule itself
# Experiment: SEC; Ni-NTA affinity purified R-est6 loaded on a Superdex 75 column calibrated with known molecular weight markers; protein in peak 1 and peak 2 confirmed as R-est6 on SDS-PAGE
protein,measurement,value
B1,binding result,binds
